Measured values published in US20150272562A1 (ETHICON, published 2015).

How the values were obtained:
[1] = target: T1, fibrin monomers, dimers and/or oligomers (UniProt P02671 36-629; P02675 45-491; P02679 27-437); test: cell-based or functional assay
T1 sequence (looked up) 1: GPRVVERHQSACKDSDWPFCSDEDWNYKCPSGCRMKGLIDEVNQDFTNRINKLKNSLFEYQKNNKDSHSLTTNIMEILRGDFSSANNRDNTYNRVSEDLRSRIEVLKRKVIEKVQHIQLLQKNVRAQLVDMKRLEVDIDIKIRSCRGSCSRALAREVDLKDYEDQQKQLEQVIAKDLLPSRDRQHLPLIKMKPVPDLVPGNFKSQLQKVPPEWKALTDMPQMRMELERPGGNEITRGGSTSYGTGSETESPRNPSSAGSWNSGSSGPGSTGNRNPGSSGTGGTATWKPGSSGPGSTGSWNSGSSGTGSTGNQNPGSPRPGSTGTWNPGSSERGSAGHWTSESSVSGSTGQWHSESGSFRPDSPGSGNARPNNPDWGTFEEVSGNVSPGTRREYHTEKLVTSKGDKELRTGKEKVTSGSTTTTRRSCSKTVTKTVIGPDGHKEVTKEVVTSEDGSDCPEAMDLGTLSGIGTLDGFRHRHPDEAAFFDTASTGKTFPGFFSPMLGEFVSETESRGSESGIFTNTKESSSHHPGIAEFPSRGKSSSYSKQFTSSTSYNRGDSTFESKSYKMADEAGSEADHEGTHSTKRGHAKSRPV
T1 sequence (looked up) 2: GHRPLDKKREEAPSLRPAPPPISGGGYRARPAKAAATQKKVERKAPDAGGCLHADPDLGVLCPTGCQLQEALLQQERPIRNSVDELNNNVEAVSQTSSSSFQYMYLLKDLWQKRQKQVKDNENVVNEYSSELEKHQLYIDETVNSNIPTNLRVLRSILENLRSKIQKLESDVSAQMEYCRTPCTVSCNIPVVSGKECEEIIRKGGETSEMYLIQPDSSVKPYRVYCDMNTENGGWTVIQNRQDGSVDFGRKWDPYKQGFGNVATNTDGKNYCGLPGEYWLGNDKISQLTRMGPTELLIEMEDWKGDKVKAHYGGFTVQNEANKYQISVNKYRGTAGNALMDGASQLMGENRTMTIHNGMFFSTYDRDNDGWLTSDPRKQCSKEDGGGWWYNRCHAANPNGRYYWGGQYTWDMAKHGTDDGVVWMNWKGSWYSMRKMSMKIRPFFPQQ
T1 sequence (looked up) 3: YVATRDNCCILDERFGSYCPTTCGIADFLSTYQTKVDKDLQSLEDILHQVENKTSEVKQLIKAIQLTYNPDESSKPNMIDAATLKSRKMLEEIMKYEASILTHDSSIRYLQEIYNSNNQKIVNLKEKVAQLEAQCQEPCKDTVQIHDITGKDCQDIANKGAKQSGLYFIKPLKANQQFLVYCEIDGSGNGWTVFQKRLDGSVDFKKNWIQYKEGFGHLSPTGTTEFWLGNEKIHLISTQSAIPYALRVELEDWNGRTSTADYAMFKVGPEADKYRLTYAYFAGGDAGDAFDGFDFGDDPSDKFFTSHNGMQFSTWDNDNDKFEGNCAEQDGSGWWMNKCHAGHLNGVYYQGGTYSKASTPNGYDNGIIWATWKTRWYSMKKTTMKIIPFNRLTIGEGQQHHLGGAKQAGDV

[2] = target: T1, fibrin monomers, dimers and/or oligomers; test: cell-based or functional assay; remark: listed apart in the source

With GPRP [GPRP peptide (Gly-Pro-Arg-Pro)] the “fibrin polymerization; 40 mM GPRP, molar ratio above 340:1 GPRP:fibrin” value [1] was greater than 14 days, the “Time to clot (cessation of flow on tube inversion); GPRP 0.1 mM, 1.1-fold GPRP:fibrin, 3% fibrin, thrombin 100 IU/ml” value [2] was 5 s and the “Time to clot (cessation of flow on tube inversion); GPRP 0.2 mM, 2.3-fold GPRP:fibrin, 3% fibrin, thrombin 100 IU/ml” value [2] was 7 s. For the same binder, the “Time to clot (cessation of flow on tube inversion); GPRP 0.5 mM, 5.7-fold GPRP:fibrin, 3% fibrin, thrombin 100 IU/ml” value [2] was 11 s, the “Time to clot (cessation of flow on tube inversion); GPRP 1 mM, 11.3-fold GPRP:fibrin, 3% fibrin, thrombin 100 IU/ml” value [2] was 13 s and the “Time to clot (cessation of flow on tube inversion); GPRP 1.5 mM, 17-fold GPRP:fibrin, 3% fibrin, thrombin 100 IU/ml” value [2] was 22 s. For the same binder, the “Time to clot (cessation of flow on tube inversion); GPRP 2 mM, 22.7-fold GPRP:fibrin, 3% fibrin, thrombin 100 IU/ml” value [2] was 28 s, the “Time to clot (cessation of flow on tube inversion); GPRP 3 mM, 34-fold GPRP:fibrin, 3% fibrin, thrombin 100 IU/ml” value [2] was 2.5 min and the “Time to clot (cessation of flow on tube inversion); GPRP 4 mM, 45-fold GPRP:fibrin, 3% fibrin, thrombin 100 IU/ml” value [2] was 8 min. The “Time to clot (cessation of flow on tube inversion); GPRP 5 mM, 56.7-fold GPRP:fibrin, 3% fibrin, thrombin 100 IU/ml” value [2] was 15 min.
